Reference: US20120301461A1 (Merck Sharp & Dohme, published 2012)
Positions count from the first letter of the chain named. Numbers in names are those of the source.

B1: m2CX1D05 Fab (Fab, V domains shown)
VH: QVQLVQSGAEVKKPGSSVKVSCKASGGTFNSHAISWVRQAPGQGLEWMGGINPILGIANYAQKFQGRVTITADESTSTAYMELSSLRSEDTAVYYCARHYEIQIGRYGMNVYYLMYRFASWGQGTLVTVSS
VL: DIQMTQSPSSLSASVGDRVTITCRASQGIRSALNWYQQKPGKAPKLLIYNGSTLQSGVPSRFSGSGSGTDFTLTISSLQPEDFAVYYCQQFDGDPTFGQGTKVEIKR
notes: also called Fab 1D05; mPCSK9 2CX1D05 Fab
B2: 1D05 IgG2m4 (antibody, V domains shown)
VH: B1 VH
VL: B1 VL
notes: also called M2CX1D05 (IgG); IgG 1D05
B3: 1B20 Fab (Fab, V domains shown)
VH: QVQLVQSGAEVKKPGESLKISCKGSGYSFTNYWISWVRQMPGKGLEWMGIIYPGDSYTNYSPSFQGQVTISADKSISTAYLQWSSLKASDTAMYYCARDYWYKPLFDIWGQGTLVTVSS
VL: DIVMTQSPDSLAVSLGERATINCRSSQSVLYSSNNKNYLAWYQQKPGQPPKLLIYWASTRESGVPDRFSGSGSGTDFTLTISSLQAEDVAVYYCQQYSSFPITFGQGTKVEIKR
B4: 1D05 Fab variant M48L (Fab, V domains shown)
VH: B1 VH with M48L
VL: B1 VL
notes: Tested as a Fab, with only the heavy chain mutated
B5: 1D05 Fab variant H32Y (Fab, V domains shown)
VH: B1 VH with H32Y
VL: B1 VL
notes: Site-directed mutant of 1D05, tested as a Fab, with only the heavy chain mutated
B6: 1D05 Fab variant H99Y (Fab, V domains shown)
VH: B1 VH with H99Y
VL: B1 VL
notes: as for B4
B7: 1D05 Fab variant M48A (Fab, V domains shown)
VH: B1 VH with M48A
VL: B1 VL
notes: as for B4
B8: 1D05 Fab variant M48L/M109L/M115L (Fab, V domains shown)
VH: B1 VH with M48L, M109L, M115L
VL: B1 VL
notes: as for B4
B9: 1D05 Fab variant M48V (Fab, V domains shown)
VH: B1 VH with M48V
VL: B1 VL
notes: as for B4
B10: 1D05 Fab variant N50D (Fab, V domains shown)
VH: B1 VH
VL: B1 VL with N50D
notes: Tested as a Fab, with only the light chain mutated
B11: 1D05 Fab variant N50Q (Fab, V domains shown)
VH: B1 VH
VL: B1 VL with N50Q
notes: as for B10
B12: 1D05 Fab variant N50T (Fab, V domains shown)
VH: B1 VH
VL: B1 VL with N50T
notes: as for B10
B13: 1D05 Fab variant N50Y (Fab, V domains shown)
VH: B1 VH
VL: B1 VL with N50Y
notes: as for B10

Legend:
[1] = target: T1, murine PCSK9, V5- and His-tagged (mPCSK9v5His) (murine, UniProt Q80W65 35-694); experiment: cell-based or functional assay
[2] = target: T1, murine PCSK9, V5- and His-tagged …; experiment: SPR (Biacore 2000), Fab captured on anti-Fab IgG, PCSK9 in flow; mean N=3
Procedure: Anti-Fab IgG (Human specific) (Sigma, catalog #I5260) was covalently coupled to surfaces 1 and 2 of a Sensor Chip CM5 via primary amine groups, using the immobilization wizard with the “Aim for immobilization” option using Biacore™ Amine Coupling Kit (cat #BR-1000-50. A target immobilization of 5000 RU was specified. The wizard uses a 7 minute activation with a 1:1 mixture of 100 mM NHS (N-Hydroxysuccinimide) and 400 mM EDC (1-ethyl-3-(3-dimethylaminopropyl)-carbodiimide), injects the ligand in several pulses to achieve the desired level, then deactivates the remaining surface with a 7 minute pulse of ethanolamine.
Each Fab was captured by flowing a 500 ng/ml solution at 5 or 10 μl/min for 1-1.5 minutes to reach a target RL for an Rₘₐₓ of 100-150 RU for the reaction. 5-10 concentrations of hPCSK9v5His or mPCSK9v5His antigens were flowed across the surface at 30 μl/minute for 3-4 minutes. 15-60 minutes dissociation time was allowed before regeneration of the Anti-Fab surface with a 30 second pulse of 10 mM glycine pH 2.0.

[3] = target: T1, murine PCSK9, V5- and His-tagged …; experiment: SPR (Biacore 2000), IgG captured on goat anti-human IgG, PCSK9 in flow; mean N=2
Procedure: A goat Anti-Human IgG (Caltag, catalog #H10700) was covalently coupled to surfaces 1 and 2 of a Sensor Chip CM5 via primary amine groups, using the immobilization wizard with the “Aim for immobilization” option using Biacore™ Amine Coupling Kit (cat #BR-1000-50. A target immobilization of 5000 RU was specified. The wizard uses a 7 minute activation with a 1:1 mixture of 100 mM NHS (N-Hydroxysuccinimide) and 400 mM EDC (1-ethyl-3-(3-dimethylaminopropyl)-carbodiimide), injects the ligand in several pulses to achieve the desired level, then deactivates the remaining surface with a 7 minute pulse of ethanolamine.
IgG was captured by flowing a 10 nM solution at 10 μl/min for 1-1.5 minutes to reach a target RL for an Rₘₐₓ of 100-150 RU for the reaction. 5-10 concentrations of hPCSK9v5His or mPCSK9v5His antigens were flowed across the surface at 30 or 60 μl/minute for 4 minutes. 15-60 minutes dissociation time was allowed before regeneration of the Anti-IgG surface with a 60 second pulse of 10 mM Glycine pH 1.7.

[4] = target: T1, murine PCSK9, V5- and His-tagged …; experiment: kinetic constants of 1B20 Fab; method not named at the table (presumably SPR as in Example 6)
[5] = target: T2, human PCSK9, V5- and His-tagged (hPCSK9v5His) (human, UniProt Q8NBP7 31-692); experiment: SPR (Bio-Rad ProteOn), Fab against human PCSK9-V5-His
T2 construct: Recombinant secreted protein; Peptides 31-49 (prodomain) and 153-; also called wt-hPCSK9; wt-PCSK9; not shown: V5 and His tags
T2 sequence (Q8NBP7 31-692 limits assumed): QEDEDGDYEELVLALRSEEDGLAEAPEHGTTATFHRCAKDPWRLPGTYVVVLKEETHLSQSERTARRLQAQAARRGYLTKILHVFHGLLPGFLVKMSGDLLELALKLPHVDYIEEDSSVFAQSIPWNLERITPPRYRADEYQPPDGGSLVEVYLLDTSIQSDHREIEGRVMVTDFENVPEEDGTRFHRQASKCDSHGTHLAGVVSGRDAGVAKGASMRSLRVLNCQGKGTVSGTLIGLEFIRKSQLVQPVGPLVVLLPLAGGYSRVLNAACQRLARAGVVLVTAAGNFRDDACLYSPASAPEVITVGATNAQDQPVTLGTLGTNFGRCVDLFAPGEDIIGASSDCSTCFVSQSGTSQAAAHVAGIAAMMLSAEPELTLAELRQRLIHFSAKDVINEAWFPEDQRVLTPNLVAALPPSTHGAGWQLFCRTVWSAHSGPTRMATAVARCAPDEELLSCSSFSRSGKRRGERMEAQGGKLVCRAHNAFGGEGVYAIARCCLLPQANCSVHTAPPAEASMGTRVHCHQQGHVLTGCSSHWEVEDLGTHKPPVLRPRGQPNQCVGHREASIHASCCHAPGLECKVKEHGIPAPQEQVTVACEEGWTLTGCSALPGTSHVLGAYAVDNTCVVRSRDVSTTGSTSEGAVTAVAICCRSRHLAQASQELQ

T1 sequence (Q80W65 35-694 limits assumed): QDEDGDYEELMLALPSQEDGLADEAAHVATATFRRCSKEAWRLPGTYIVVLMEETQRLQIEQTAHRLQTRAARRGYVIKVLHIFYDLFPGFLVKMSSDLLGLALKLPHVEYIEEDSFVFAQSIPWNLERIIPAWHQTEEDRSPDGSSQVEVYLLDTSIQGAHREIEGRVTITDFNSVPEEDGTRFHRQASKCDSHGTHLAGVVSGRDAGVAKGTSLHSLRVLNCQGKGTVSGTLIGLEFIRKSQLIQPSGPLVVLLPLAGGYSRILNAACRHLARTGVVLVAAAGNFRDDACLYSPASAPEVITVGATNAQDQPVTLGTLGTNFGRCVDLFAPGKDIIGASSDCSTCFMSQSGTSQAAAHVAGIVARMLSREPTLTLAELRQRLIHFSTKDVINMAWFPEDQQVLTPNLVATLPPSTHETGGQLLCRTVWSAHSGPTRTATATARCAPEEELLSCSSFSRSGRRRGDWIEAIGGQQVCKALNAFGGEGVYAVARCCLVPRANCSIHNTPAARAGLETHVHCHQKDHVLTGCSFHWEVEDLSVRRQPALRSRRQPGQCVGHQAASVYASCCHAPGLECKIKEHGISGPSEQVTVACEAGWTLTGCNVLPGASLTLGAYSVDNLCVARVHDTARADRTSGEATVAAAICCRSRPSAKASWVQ

Binder	Kd [5]	further results
B1	–	IC50, inhibition of PCSK9-dependent loss of cellular LDL uptake (Exopolar assay, HEK cells, PCSK9 5 ug/ml) [1]: 97 nM; Kd [2]: 3.35 nM
B2	–	Kd [3]: 3.2 nM; IC50, inhibition of PCSK9-dependent loss of cellular LDL uptake (Exopolar assay, HEK cells, PCSK9 5 ug/ml) [1]: 85 nM
B3	–	Ka [4]: 2e+09 M⁻¹; Kd [4]: 0.51 nM; koff [4]: 7.18e-05 s⁻¹; kon [4]: 141000 M⁻¹ s⁻¹; IC50, Exopolar assay (PCSK9-dependent loss of cellular LDL uptake) [1]: 152 nM
B4	1.52 nM	–
B5	2.01 nM	–
B6	1.45 nM	–
B7	2.06 nM	–
B8	1.13 nM	–
B9	1.95 nM	–
B10	3.42 nM	–
B11	0.615 nM	–
B12	2.13 nM	–
B13	2.58 nM	–
